According to patent US20140287419A1, “Compositions Having Dicamba Decarboxylase Activity and Methods of Use” (priority 2013, published 2014):
Changes are numbered by the printed parent chain.

B1: 100 (protein, listed as Reinekea blandensis)
chain: MAIIDCHGHYTTTPKGVEDYRNAQKAAVAKDPSFKGEKGQVVVSDDEIRESIENNQLKMQRERGTDLTIFSPRASWMGHHIGNEYTSQFWTEHQNDLIRRVCDLFPKNFAPVAQLPQSPGVDPAKSVPEIVRTVEQMGFIGINLNPDPSGGYWKDTSLADRAFYPIYEKMVEYDIPAMIHVSAACNDCFHTTGSHYLGADTTGFQQLIMSDVFKDFPSLKIIIPHGGGAVPYHWGRFRGLMQDQGYAPLEESALKNIYFDTCVYHQRGIDLLLDIVPTQNILFASEMIGAVRGIDPETGHNFDDTKRYIDNNTALNAEEKAMIFEGNARRVFSRLKTD
B2: 122 (protein)
chain: B1 chain with A74S, S75T, W76A, M77G, V181P, S182R, A183N, Y196A, E286D
modifications: Dicamba decarboxylase variant clone DC.12.103
B3: 118 (protein)
chain: MAKKPRIDMHSHFFPRISEQEAAKFDANHAPWLQVSAKGDTGSIMMGKNNFQPVYQALWDPAFRIEEMDAQGVDVQVTCATPVMFGYTWEANKAAQWAERMNDFALEFAAHNPQRIKVLAQVPLQDLDLACKEASRAVAAGHLGIQIGNHLGDKDLDDATLEAFLTHCANEDIPILVHGTDMMGGQRMKKWGLPWLVALAAEVQLAILSLILSGAFERIPKSLKICFSHGGGSFAFLLGLVDEAWRHVDIVREDCPRPPSEYVDRFFVDSVGNPGALELLVSVMGEDRVMLGSDYPHTTGEQKIGGLVLSSNLGESAKDKIISGNASKFFNINV
modifications: Dicamba decarboxylase variant clone DC.5.033
B4: 119 (protein)
chain: B3 chain with T180W, P194Y, L199H, A200H, L237T, L240W, H297L
modifications: Dicamba decarboxylase variant cloneDC.5.034
B5: 41 (protein, listed as Polaromonas sp.)
chain: MANGKIALEEHFATEETLMDSAGFVPDKDWPELRSRLLDIQDRRVRLMDEHGIETMILSLNAPAVQAIADSTRANETARRANDFLAEQVAKQPTRFRGFAALPMQDPELAARELERCVKELGFVGALVNGFSQDNRSAVPLYYDMAQYWPFWETVQALDVPFYLHPRNPLPSDARIYDGHAWLLGPTWAFGQETAVHALRLMGSGLFDKYPALKIILGHMGEGLPYSMWRIDHRNAWIKTTPKYPAKRKIVDYFNENFYLTTSGNFRTQTLIDAILEIGADRILFSTDWPFENIDHAADWFENTSISEADRKKIGWGNAQNLFKLNR
B6: 121 (protein)
chain: MAIIDCHGHYTTTPKGVEDYRNAQKAAVAKDPSFKGEKGQVVVSDDEIRESIENNQLKMQRERGTDLTIFSPRWDAGGHHIGNEYTSQFWTEHQNDLIRRVCDLFPKNFAPVAQLPQSPGVDPAKSVPEIVRTVEQMGFIGINLNPDPSGGYWKDTSLADRAFYPIYEKMVEYDIPAMIHPRLACNACFHTGLSVGLGADTTGFQQLIMSDVFKDFPSLKIIIPHGGGAVPYHWGRFRGLMQDQGYAPLEESALKNIYFDTCVYHQRGIDLLLDIVPTQNILFASEMIGAVRGIDPETGHNFDDTKRYIDNNTALNAEEKAMIFEGNARRVFSRLKTD
modifications: Dicamba decarboxylase variant clone DC.12.014
B7: 111 (protein)
chain: MAQGKVALEEHFAIPETLQDSMGFVPGDYWKELMHRLLDIQDTRLKLMDAHGIETMILSLNAPAVQAIPDRRKAIEIARRANDVLAEECAKRPDRFLAFAALPLQDPDAATEELQRCVNDLGFVGALVNGFSQEGDGQTPLYYDLPQYRPFWGEVEKLDVPFYLHPRNPLPQDSRIYDGHPWLLGPTWAFAQETAVHALRLMASGLFDEHPRLNIILGHMGEGLPYMMWRIDHRMAWIKLPPRYPAKRRFMDYFNENFHITTSGNFRTQTLIDAILEIGADRILFSTDWPFENIDHASDWFNATSIAEADRVKIGRTNARRLFKLDGA
modifications: Dicamba decarboxylase variant clone DC.4.112
B8: 112 (protein)
chain: B7 chain with M22A, M34V, M235V, I238V
modifications: Dicamba decarboxylase variant clone DC.4.113
B9: 113 (protein)
chain: B7 chain with M22A, W30L, M34F, M235V, I238V
modifications: Dicamba decarboxylase variant clone DC.4.114
B10: 95 (protein, listed as Pseudomonas fluorescens)
chain: MAKKPRIDMHSHFFPRISEQEAAKFDANHAPWLQVSAKGDTGSIMMGKNNFRPVYQALWDPAFRIEEMDAQGVDVQVTCATPVMFGYTWEANKAAQWAERMNDFALEFAAHNPQRIKVLAQVPLQDLDLACKEASRAVAAGHLGIQIGNHLGDKDLDDATLEAFLTHCANEDIPILVHPWDMMGGQRMKKWMLPWLVAMPAETQLAILSLILSGAFERIPKSLKICFGHGGGSFAFLLGRVDNAWRHRDIVREDCPRPPSEYVDRFFVDSAVFNPGALELLVSVMGEDRVMLGSDYPFPLGEQKIGGLVLSSNLGESAKDKIISGNASKFFNINV
B11: 117 (protein)
chain: B10 chain with W195V, M199A, T203V, G228A, H229G, R240I, N243L, A271L, L300T
modifications: Dicamba decarboxylase variant clone DC.5.008
B12: 120 (protein)
chain: MAIIDCHGHYTTTPKGVETYRNAQKAAVAKDPSFKYEKGQVVVSDDEIRESIENNQLKMQRERGTDLTIFSPRSTAGGHHIGNEYTSQFWTEHQNDLIRRVCDLFPKNFAPVAQLPQSPGVDPAKSVPEIVRTVEQMGFIGINLNPDPSGGYWKDTSLADRAFYPIYEKMVEYDIPAMIHPRNACNDCFHTTGSHALGADTTGFQQLIMSDVFKDFPSLKIIIPHGGGAVPYHWGRFRGLMQDQGYAPLEESALKNIYFDTCVYHQRGIDLLLDIVPTQNILFASEMIGAVRGIDAETGHNFDDTKRYIDNNTALNAEEKAMIFEGNARRVFSRLKTD
modifications: Dicamba decarboxylase variant clone DC.12.002

Experiments:
[1] = Dicamba decarboxylation activity of computationally designed protein variants; conditions: for Percent Activity Improvement Over Parent (%): parent SEQ ID NO:1 or SEQ ID NO:41 listed as 100
[2] = 14C assay with IPTG-induced recombinant E. coli cells (14CO2 capture from [14C]-carboxyl-labeled dicamba); conditions: for Dicamba Decarboxylase Activity: IPTG-induced recombinant E. coli cells, [14C]-carboxyl-labeled dicamba, 14CO2 capture; for Enzymatic Detection level: dicamba decarboxylation activity of the protein of the given SEQ ID NO
[3] = Table 4, variants designed to introduce activity
[4] = Table 5, designed variants with improved activity

| Molecule | Dicamba Decarboxylation activity [1, 3] | Dicamba Decarboxylase Activity [2] | Enzymatic Detection level [2] | Dicamba Decarboxylation activity [1, 4] | Percent Activity Improvement Over Parent (%) [1] |
| --- | --- | --- | --- | --- | --- |
| B1 | No | No | No |  |  |
| B2 | Yes |  | High |  |  |
| B3 | Yes |  | High |  |  |
| B4 | Yes |  | High |  |  |
| B5 |  | High | High | Yes | 100% |
| B6 | Yes |  | High |  |  |
| B7 |  |  | High | Yes | 237% |
| B8 |  |  | High | Yes | 219% |
| B9 |  |  | High | Yes | 224% |
| B10 | No | No | No |  |  |
| B11 | Yes |  | High |  |  |
| B12 | Yes |  | High |  |  |
